Measured values from article PMC3049928.

Substrate: Nc1ncnc2c1ncn2[C@@H]1O[C@H](COP(=O)(O)O)[C@@H](OP(=O)(O)O)[C@H]1O
Test: purified protein
Type: biochemical, Homo sapiens
Details: varied pNPS, no added alcohol, 50 mM phosphate pH 6.2, 37 °C

B1: SULT1A1 (human phenol sulfotransferase, human sulfotransferase 1A1) (Homo sapiens) (protein)
chain: MELIQDTSRPPLEYVKGVPLIKYFAEALGPLQSFQARPDDLLISTYPKSGTTWVSQILDMIYQGGDLEKCHRAPIFMRVPFLEFKAPGIPSGMETLKDTPAPRLLKTHLPLALLPQTLLDQKVKVVYVARNAKDVAVSYYHFYHMAKVHPEPGTWDSFLEKFMVGEVSYGSWYQHVQEWWELSRTHPVLYLFYEDMKENPKREIQKILEFVGRSLPEETVDFVVQHTSFKEMKKNPMTNYTTVPQEFMDHSISPFMRKGMAGDWKTTFTVAQNERFDADYAEKMAGCSLSFRSEL
Km: 34 ± 6 µM
kcat: 0.000633 ± 0.000117 s⁻¹
kcat/Km: 18.3 ± 3.33 M⁻¹ s⁻¹
